Laboratory results taken from patent US20040077046.

B1: C-terminally flag epitope-tagged HDAC4 (protein)
chain: MSSQSHPDGLSGRDQPVELLNPARVNHMPSTVDVATALPLQVAPSAVPMDLRLDHQFSLPVAEPALREQQLQQELLALKQKQQIQRQILIAEFQRQHEQLSRQHEAQLHEHIKQQQEMLAMKHQQELLEHQRKLERHRQEQELEKQHREQKLQQLKNKEKGKESAVASTEVKMKLQEFVLNKKKALAHRNLNHCISSDPRYWYGKTQHSSLDQSSPPQSGVSTSYNHPVLGMYDAKDDFPLRKTASEPNLKLRSRLKQKVAERRSSPLLRRKDGPVVTALKKRPLDVTDSACSSAPGSGPSSPNNSSGSVSAENGIAPAVPSIPAETSLAHRLVAREGSAAPLPLYTSPSLPNITLGLPATGPSAGTAGQQDAERLTLPALQQRLSLFPGTHLTPYLSTSPLERDGGAAHSPLLQHMVLLEQPPAQAPLVTGLGALPLHAQSLVGADRVSPSIHKLRQHRPLGRTQSAPLPQNAQALQHLVIQQQHQQFLEKHKQQFQQQQLQMNKIIPKPSEPARQPESHPEETEEELREHQALLDEPYLDRLPGQKEAHAQAGVQVKQEPIESDEEEAEPPREVEPGQRQPSEQELLFRQQALLLEQQRIHQLRNYQASMEAAGIPVSFGGHRPLSRAQSSPASATFPVSVQEPPTKPRFTTGLVYDTLMLKHQCTCGSSSSHPEHAGRIQSIWSRLQETGLRGKCECIRGRKATLEELQTVHSEAHTLLYGTNPLNRQKLDSKKLLGSLASVFVRLPCGGVGVDSDTIWNEVHSAGAARLAVGCVVELVFKVATGELKNGFAVVRPPGHHAEESTPMGFCYFNSVAVAAKLLQQRLSVSKILIVDWDVHHGNGTQQAFYSDPSVLYMSLHRYDDGNFFPGSGAPDEVGTGPGVGFNVNMAFTGGLDPPMGDAEYLAAFRTVVMPIASEFAPDVVLVSSGFDAVEGHPTPLGGYNLSARCFGYLTKQLMGLAGGRIVLALEGGHDLTAICDASEACVSALLGNELDPLPEKVLQQRPNANAVRSMEKVMEIHSKYWRCLQRTTSTAGRSLIEAQTCENEEAETVTAMASLSVGVKPAEKRPDEEPMEEEPPL
B2: C-terminally flag epitope-tagged HDAC3 (protein)
chain: MAKTVAYFYDPDVGNFHYGAGHPMKPHRLALTHSLVLHYGLYKKMIVFKPYQASQHDMCRFHSEDYIDFLQRVSPTNMQGFTKSLNAFNVGDDCPVFPGLFEFCSRYTGASLQGATQLNNKICDIAINWAGGLHHAKKFEASGFCYVNDIVIGILELLKYHPRVLYIDIDIHHGDGVQEAFYLTDRVMTVSFHKYGNYFFPGTGDMYEVGAESGRYYCLNVPLRDGIDDQSYKHLFQPVINQVVDFYQPTCIVLQCGADSLGCDRLGCFNLSIRGHGECVEYVKSFNIPLLVLGGGGYTVRNVARCWTYETSLLVEEAISEELPYSEYFEYFAPDFTLHPDVSTRIENQNSRQYLDQIRQTIFENLKMLNHAPSVQIHDVPADLLTYDRTDEADAEERGPEENYSRPEAPNEFYDGDHDNDKESDVEI

Biological target: 3H-acetylated histone H4 peptide ([3H]-Ac(H41-24))

Protein	in vitro histone deacetylase assay (release of 3H-acetate from the peptide by immunoprecipitated enzyme)
B1	HDAC9 could deacetylate the histone peptide substrate at a level that was equivalent to UDAC3 and HDAC4
B2	HDAC9 could deacetylate the histone peptide substrate at a level that was equivalent to UDAC3 and HDAC4
